Source: article PMC4621513

Target: APOBEC3G (A3G) (UniProt Q9HC16)
Experiment: AFM imaging
Details: protein:DNA 2:1, Force spectroscopy probing buffer: 50 mM HEPES, 100 mM NaCl, 5 mM MgCl2, 1 mM DTT (pH and temperature not given), imaging buffer not in the material

Chain of APOBEC3G (A3G) (Q9HC16 whole entry): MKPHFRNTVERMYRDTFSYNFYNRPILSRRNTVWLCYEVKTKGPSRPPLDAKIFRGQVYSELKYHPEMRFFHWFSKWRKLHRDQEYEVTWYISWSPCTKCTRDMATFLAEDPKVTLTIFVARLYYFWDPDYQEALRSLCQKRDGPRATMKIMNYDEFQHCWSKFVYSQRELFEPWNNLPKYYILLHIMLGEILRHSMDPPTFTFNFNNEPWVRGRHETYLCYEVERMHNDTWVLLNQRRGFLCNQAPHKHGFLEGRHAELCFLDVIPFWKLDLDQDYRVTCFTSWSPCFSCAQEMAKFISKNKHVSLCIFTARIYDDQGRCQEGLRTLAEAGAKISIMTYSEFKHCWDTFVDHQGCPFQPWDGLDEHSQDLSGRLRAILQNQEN

Substance	binding signal (% complex yield)	binding signal (% complex yield) (p = 0.12 vs specific (not significant))
418 bp duplex with 69 nt deaminase specific overhang	79.7	
418 bp duplex with 69 nt nonspecific overhang		72.8
